Experimental data taken from patent publication US20200397914A1.

Legend:
[1] = biological target: human folate receptor 1 (folate receptor alpha, FRα) on T47D cells (human) (UniProt P15328); test: flow cytometry on T47D cells, FITC anti-human IgG Fcγ detection; control run with M-sSPDB-30
[2] = biological target: human folate receptor 1 (folate receptor alpha, FRα) on T47D cells (human) (UniProt P15328); test: flow cytometry on T47D cells, FITC anti-human IgG Fcγ detection; control run with M-10
[3] = biological target: human folate receptor 1 (folate receptor alpha, FRα) on T47D cells (human) (UniProt P15328); test: flow cytometry on T47D cells, FITC anti-human IgG Fcγ detection; control run with M-sSPDB-87
[4] = biological target: human folate receptor 1 (folate receptor alpha, FRα) on T47D cells (human) (UniProt P15328); test: flow cytometry on T47D cells, FITC anti-human IgG Fcγ detection; control run with M-sSPDB-127
[5] = biological target: human folate receptor 1 (folate receptor alpha, FRα) on T47D cells (human) (UniProt P15328); test: flow cytometry on T47D cells, FITC anti-human IgG Fcγ detection; control run with M-166
[6] = biological target: human folate receptor 1 (folate receptor alpha, FRα) on T47D cells (human) (UniProt P15328); test: flow cytometry on T47D cells, FITC anti-human IgG Fcγ detection; control run with M-sSPDB-109
[7] = biological target: human folate receptor 1 (folate receptor alpha, FRα) on T47D cells (human) (UniProt P15328); test: flow cytometry on T47D cells, FITC anti-human IgG Fcγ detection; control run with M-sSPDB-17
[8] = biological target: human folate receptor 1 (folate receptor alpha, FRα) on T47D cells (human) (UniProt P15328); test: flow cytometry on T47D cells, FITC anti-human IgG Fcγ detection; control run with M-160

Chain of human folate receptor 1 (folate receptor alpha, FRα) on T47D cells (human) (P15328 25-234, stated change not applied): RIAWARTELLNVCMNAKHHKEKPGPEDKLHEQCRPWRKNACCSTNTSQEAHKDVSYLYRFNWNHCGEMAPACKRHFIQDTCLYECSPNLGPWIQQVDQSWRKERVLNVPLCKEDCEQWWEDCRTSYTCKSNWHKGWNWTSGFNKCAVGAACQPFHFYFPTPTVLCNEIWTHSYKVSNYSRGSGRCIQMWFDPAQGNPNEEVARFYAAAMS

B1: huMov19 antibody (unconjugated) (antibody, from a related filing, V domains shown)
VH: QVQLVQSGAEVVKPGASVKISCKASGYTFTGYFMNWVKQSPGQSLEWIGRIHPYDGDTFYNQKFQGKATLTVDKSSNTAHMELLSLTSEDFAVYYCTRYDGSRAMDYWGQGTTVTVSS
VL: DIVLTQSPLSLAVSLGQPAIISCKASQSVSFAGTSLMHWYHQKPGQQPRLLIYRASNLEAGVPDRFSGSGSKTDFTLTISPVEAEDAATYYCQQSREYPYTFGGGTKLEIKR
- EC50 [1]: 0.2 nM
- EC50 [2]: 0.3 nM
- EC50 [3]: 0.2 nM
- EC50 [4]: 0.2 nM
- EC50 [5]: 0.2 nM
- EC50 [6]: 0.2 nM
- EC50 [7]: 0.2 nM
- EC50 [8]: 0.2 nM
